What was measured:
[1] = biological target: rabbit TRIB3 pseudokinase fused to GFP (rTRIB3-GFP) (rabbit); experiment: FRET or BRET; flow cytometry-based FRET (FRET-FACS); HEK-293T cells 48 hours after co-transfection of a Cherry-fusion and a GFP-fusion plasmid; percentage of FRET+ cells gated on Cherry+ and GFP+ cells
[2] = biological target: rabbit APOBEC3A fused to Cherry (rA3A-Cherry) (rabbit); experiment: as above

## rabbit APOBEC3A fused to Cherry (rA3A-Cherry) (enzyme)
[1]
  percentage of fluorescent cells in the FRET channel: 11%
[2]
  percentage of fluorescent cells in the FRET channel: 19%

From paper PMC6021247
